# US20200024330A1
# Columns and labels:
# Test in all cases: cell-based or functional assay
# [1] = molecular target: HIV-1 Env of isolate MGRM-A-011 (HIV-1)
# [2] = molecular target: HIV-1 Env of isolate MGRM-A-005 (HIV-1)
# [3] = molecular target: HIV-1 NL43 envelope glycoprotein (Env) (HIV-1)
# [4] = molecular target: HIV-1 Env of isolate MGRM-A-001 (HIV-1)
# [5] = molecular target: HIV-1 Env of isolate MGRM-A-014 (HIV-1)
# [6] = molecular target: HIV-1 Env of isolate MGRM-A-006 (HIV-1)
# [7] = molecular target: HIV-1 APV6 envelope glycoprotein (Env) (HIV-1)
# [8] = molecular target: HIV-1 Env of isolate VLGCA1 (HIV-1)
# [9] = molecular target: HIV-1 MGRM-C-028 envelope glycoprotein (Env) (HIV-1)
# [10] = molecular target: HIV-1 Env of isolate MGRM-A-004 (HIV-1)
# [11] = molecular target: HIV-1 Env of isolate MGRM-A-013 (HIV-1)
# [12] = molecular target: HIV-1 MGRM-C-027 envelope glycoprotein (Env) (HIV-1)
# [13] = molecular target: HIV-1 Env of isolate MGRM-D-028 (HIV-1)
# [14] = molecular target: HIV-1 Env of isolate MGRM-F1-010 (HIV-1)
# [15] = molecular target: HIV-1 IAVI_C22 envelope protein (Env) on pseudotyped virus (HIV-1 isolate IAVI C22)
# [16] = molecular target: HIV-1 Env of isolate MGRM-D-024 (HIV-1)
# [17] = molecular target: HIV-1 93IN905 envelope protein (Env) on pseudotyped virus (HIV-1 isolate 93IN905)
# [18] = molecular target: HIV-1 94UG103 envelope protein (Env) on pseudotyped virus (HIV-1 isolate 94UG103)
# [19] = molecular target: HIV-1 MGRM-F1-013 Env (pseudovirus) (HIV-1)
# [20] = molecular target: HIV-1 92TH021 envelope protein (Env) on pseudotyped virus (HIV-1 isolate 92TH021)
Substance,"IC50 (µg/mL), pseudovirus neutralization [1] [µg/mL]","IC50 (µg/mL), pseudovirus neutralization [2] [µg/mL]",IC50 neutralization [3] [µg/mL],"IC50 (µg/mL), pseudovirus neutralization [4] [µg/mL]","IC50 (µg/mL), pseudovirus neutralization [5] [µg/mL]","IC50 (µg/mL), pseudovirus neutralization [6] [µg/mL]",IC50 neutralization [7] [µg/mL],"IC50 (µg/mL), pseudovirus neutralization [8] [µg/mL]",IC50 neutralization [9] [µg/mL],"IC50 (µg/mL), pseudovirus neutralization [10] [µg/mL]","IC50 (µg/mL), pseudovirus neutralization [11] [µg/mL]",IC50 neutralization [12] [µg/mL],"IC50 (µg/mL), pseudovirus neutralization [13] [µg/mL]","IC50 (µg/mL), pseudovirus neutralization [14] [µg/mL]",IC50 [2] [µg/mL],"IC50 (µg/mL), pseudovirus neutralization [16] [µg/mL]",other results
PGT-122 (antibody),> 50,> 50,> 10,> 50,0.007,> 50,0.0851,> 50,2.06,> 50,2.47,0.0388,–,–,–,–,–
PGT-121 (antibody),> 50,> 50,> 10,> 50,0.003,0.396,0.0423,> 50,1.19,> 50,0.387,0.0094,–,–,–,–,–
1496_C09 (PG9) (TCN-109) (antibody),0.033,–,0.687,–,1.25,–,0.214,0.069,0.121,–,0.122,2.45,20.2,0.012,0.75,0.038,"IC50, pseudovirus neutralization, 1 hour Virus/Ab Incubation [15]: 24.9 µg/mL; IC50, pseudovirus neutralization, 18 hour Virus/Ab Incubation [15]: 2.11 µg/mL; IC50, pseudovirus neutralization, 1 hour Virus/Ab Incubation [17]: 0.144 µg/mL; IC50, pseudovirus neutralization, 18 hour Virus/Ab Incubation [17]: 0.0619 µg/mL; IC50, pseudovirus neutralization, 1 hour Virus/Ab Incubation [18]: 0.334 µg/mL; IC50, pseudovirus neutralization, 18 hour Virus/Ab Incubation [18]: 0.0942 µg/mL; IC50 (µg/ml), pseudovirus neutralization [19]: 0.56 µg/mL; IC50, pseudovirus neutralization, 1 hour Virus/Ab Incubation [20]: 0.0612 µg/mL; IC50, pseudovirus neutralization, 18 hour Virus/Ab Incubation [20]: 0.0571 µg/mL"
PGV04 (antibody),0.09,–,–,–,0.172,–,–,0.024,–,–,0.086,–,1.01,0.184,0.134,> 50,IC50 [4]: 6.78 µg/mL; IC50 [6]: 0.244 µg/mL; IC50 [10]: 0.175 µg/mL
